{"source": "patent US10677782B2", "about": "“Methods of determining interferon having direct inhibitory effects on tumors and uses thereof” (SUPERLAB FAR EAST LIMITED, priority 2013, dated 2020)", "molecules": {"B1": {"name": "rSIFN-co: Recombinant super-compound interferon; amino acid sequence SEQ ID NO: 1 (same as interferon alfacon-1), encoded by SEQ ID NO: 2, novel tertiary structure (protein)", "chain": "MCDLPQTHSLGNRRALILLAQMRRISPFSCLKDRHDFGFPQEEFDGNQFQKAQAISVLHEMIQQTFNLFSTKDSSAAWDESLLEKFYTELYQQLNDLEACVIQEVGVEETPLMNVDSILAVKKYFQRITLYLTEKKYSPCAWEVVRAEIMRSFSLSTNLQERLRRKE", "modifications": "Amino acid sequence of recombinant interferon"}}, "tested_on": "human hepatoma SMMC-7721", "assay": "Human hepatoma SMMC-7721 xenografts in nude mice (Example 1)", "format": "in vivo", "details": "for TV (mm^3, mean ± SD) (D0): day 0, start of treatment", "method": "The test article was used without dilution. It was stored at 4° C. until thawed for injection.\nThe animals used were 4-6 weeks old male BALB/cA nu/nu mice, weighing about 23±2 g, obtained from the Shanghai Institute of Materia Medica (Shanghai, P.R. China). The study protocol was reviewed by the Committee on the Use and Care of Animals of Shanghai Institute of Materia Medica for compliance with regulations, and Committee approval was obtained prior to study initiation. Wherever possible, procedures used in this study were designed to avoid or minimize discomfort, distress, and pain to the animals. Animals that experience severe or chronic pain or distress that could not be relieved were painlessly euthanized, in accordance to regulations. Animals were housed 6 to a cage. They were ear-marked with ear hole punch identification. The room temperature was maintained at 25° C.±1° C. Lighting was set at 12 hr on and 12 hr off. Food was provided ad libitum. City tap water, filtered with a 5 micrometer (μm) filter, was provided to the animals ad libitum via water bottles. Neither the Study Director nor Huiyang Life Science and Technology Corp. was aware of any contaminant in the food or water that would interfere with or influence the intent and purpose of this study.\nThe test article (rSIFN-co) and the vehicle control were each administered intratumorally (i.t.). The test article was administered in a volume of 0.05 ml-0.15 ml per mouse per treatment, depending on the group to which the animal was assigned. […] Normal saline was injected in a volume of 0.15 ml per mouse, which was used as vehicle control.\nAnimals were assigned to treatment groups randomly. Initially, all animals were placed in one large animal cage. For assignment to the study, they were later separately housed, with 6 animals per cage per treatment group. Groups 1 and 2 are Control groups in which the animals were each administered the vehicle every other day after the first treatment. […] The animals in Groups 4, 5 and 6 were each given rSIFN-co every other day after the first treatment at 0.15 mg/mouse (Group 4) or 0.10 mg/mouse (Group 5) or 0.05 mg/mouse (Group 6), respectively. Tumor growth was monitored by measuring the length and width of each tumor twice a week during the course of the study. Each animal was also weighed twice a week during the course of the study.\nBefore commencement of this study, the xenografts were passaged twice in nude mice. Under sterile conditions, well-grown tumors were cut into 1.5 mm^3 fragments and one such fragment was injected by trocar needle into the right flank of each study animal. […] Individual tumor size (length and width) was measured twice per week with microcalipers. Tumor volume (V) was calculated using the formula: V=(length×width^2)/2. Individual relative tumor volume (RTV) was calculated using the formula: RTV=Vt/V0, where Vt is the tumor volume on the day of measurement and V0 is the tumor volume on the day of first treatment. Therapeutic effect of the test article or control article was expressed in terms of TIC (%), using the formula: TIC (%) (mean RTV of the treated group/mean RTV of the control group)×100%; and in terms of % Inhibition, using the formula: % Inhibition=100%−T/C %.", "key": {"[1]": {"details": "0.05 mg/mouse i.t. every other day, day 21"}}}
{"molecule": "B1", "values": [{"measurement": "TV (mm^3, mean ± SD) (D0)", "setting": "0.05 mg/mouse i.t. every other day", "result": "124 ± 26", "unit": "mm^3"}, {"measurement": "% Inhibition", "setting": "[1]", "result": 48.10, "unit": "%"}, {"measurement": "TV (mm^3, mean ± SD) (D21)", "setting": "[1]", "result": "592 ± 139", "unit": "mm^3"}, {"measurement": "TV (mm^3, mean ± SD) (D0)", "setting": "0.10 mg/mouse i.t. every other day", "result": "124 ± 15", "unit": "mm^3"}, {"measurement": "TV (mm^3, mean ± SD) (D21)", "setting": "0.10 mg/mouse i.t. every other day, day 21", "result": "573 ± 287", "unit": "mm^3"}, {"measurement": "TV (mm^3, mean ± SD) (D0)", "setting": "0.15 mg/mouse i.t. every other day", "result": "123 ± 20", "unit": "mm^3"}, {"measurement": "TV (mm^3, mean ± SD) (D21)", "setting": "0.15 mg/mouse i.t. every other day, day 21", "result": "505 ± 226", "unit": "mm^3"}]}
